Measurements reported in the nanobody polyreactivity screen of Harvey et al. (2022).

Assay: yeast display, Sf9 membrane polyspecificity reagent, FACS + sequencing; frameworks hold sequencing errors
Outline: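 Synthetic nanobody libraries on Saccharomyces cerevisiae BJ5465 were galactose-induced for 36–48 hours, stained 1 hour at 4 °C with 10% biotinylated, detergent-solubilized Sf9 membrane reagent and enriched on streptavidin microbeads. FACS then separated cells into low and high (top ~1%) gates by anti-HA (expression) and streptavidin (reagent binding) fluorescence. Genes were colony-PCR amplified, MiSeq 2 × 250 sequenced and CDR-length filtered. A clone's polyreactivity label is that of its gate of origin.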

Sequence | polyreactivity (PSR sort gate)
QVQLVESGACLVQAGGSLRLSCAASGFIFPRNAMGWYRQAPGKERELVAAITKSGGSTYYADSVKGRFTISRDNAKNTVYLQMNSLKPEDTAVYYCAATDSATELYYRMDYWGQGTQVTVSS | high polyreactivity
QVQLVESGAGIVQAGGSLRLSCAASGSTFGINAMGWYRQAPGKEREFVASISWSTGTTYYADSVKGRFTISRDNAKNTVYLQRNSLKPEDTAVYYCAADSSRFYGRPRYYYWGQGTQVTVSS | high polyreactivity
QVQLVESGAGLVHAGGSLRLSCAASGNTFIDYAMGWYRQAPGKERELVASITSGGGSTYYADSVKGRFTISRDNEKNTDYLQMNSLKPEDTAVFFFAAERYNSEAIFRSYDYWGQGSQVTVSS | low polyreactivity
QVQLVESGAGLVQAAGSLRLSCDASGYIFEWNAMGWYRQAPGKERELVASIDSDGSTYYADSVKGRFTISRDNAKNTVYLQMNSLKPEDTAVYYSAKSIDGWYWRRRRYDYWGQGTQVTVSS | low polyreactivity
QVQLVESGAGLVQAGASLRLSCDASAFIYVTYAMGWYRQAPGKEMELVAAITNSGGTTYYADSVKGRFTISRDNAKNTVYLQMNSLKPEDTAVYYCNKPYGGETAHREFDYWGQGTQVTVSS | low polyreactivity
QVQLVESGAGLVQAGGSLPLSCAASGSTFPKYAMGWYRQAPGKEREFVSAITSSGGRTFYADSVKGRFTISRDNAKNTVYLQMNSLKPEDTAVYYCAAYYYSWSGAFIYEYWGQGTQETVSS | high polyreactivity
QVQLVESGAGLVQAGGSLRISCAASGFTFQKNAMGWYRQSPGKERELVAAISSSGGSTYYADSVKGRFTISRDNAKNTVYLQMNSMKPDDTAVYYCNAVTLANKYNDYGYWGQGTQVTVSS | high polyreactivity
QVQLVESGAGLVQAGGSLRISGAASGRIFGKYAMGWYRQPPGKEREFVARISFSGGTTYYADSVKGRFTISRDNAKNTVYLQMNSLKPEDTAVYYCAARRQSGYGRQLDYWGQGTQVTVSS | high polyreactivity
QVQLVESGAGLVQAGGSLRLCCAASGRIFRSYAMGLYREAPGKERELVAAITWSGGSTYYADSVKGRFTISRDNAKNSVYLQMNSQKPEETAVYYCARVDTKKYSHTGYEYWGQGTQVTVSS | high polyreactivity
QVQLVESGAGLVQAGGSLRLSCAACGSTFRGNAMGWYRQAPGKEREFVASISRRGGRTNYADSVKGRFTISRDNAKNTVYLQMNSLKPEDTAVYYCAATTVPLGDYWGQGTQVTVSS | high polyreactivity
QVQLVESGAGLVQAGGSLRLSCAASGIIFSDNAMGWYRQAPGKEMELVAAIDWSGGSTYYADSVKGRFTISRDNAKNTVYLHMNSLKPEDTAVDYCAAEYRDYVPVNVTGDYWGQGTQVTVSS | low polyreactivity
QVQLVESGAGLVQAGGSLRLSCAASGITFASYGMGWYRQAPGKERELVAAISQRGGRTYYADSVKGRFTISRDNAKNTVYLQMNRLKPEDTAVYYCAARTYTITGRSPQYLNAYGYWGQGTQVTVSS | high polyreactivity
QVQLVESGAGLVQAGGSLRLSCAASGLIFSVYGLGWYRQEPGKERELVAAISSRGGSTYYADSVKGRFTISRVNANYTVYLQMNSLKPEDTAFYYCARRAYREHHRCQYYYWGQGTQLTVSS | high polyreactivity
QVQLVESGAGLVQAGGSLRLSCAASGRIFDIYAMGWYRQAPGKERELVAAITRRGGTTYADSVKGRFTISRDNAKNTVYLQMNSLKPEDTAVYYCARYHWYYRVSKSDSWGQGTQVTVSS | high polyreactivity
QVQLVESGAGLVQAGGSLRLSCAASGRTFDSNAMGWYRQAPGKEREFFASIRWTVTSTYYADSVKGRFTISRDNAKNTVYLQMNSLKPEDTAVYYCNAEDYYYVGRSDYWGQGTQVTVSS | low polyreactivity
QVQLVESGAGLVQAGGSLRLSCAASGRTFSGYAMGGYRQAPGKERELVAAISWRGGRTYYADSVKGRFTISRDNAKNTVYLLMYSLKPEDTAVYYCNTVGHVYYGEFDYWGQGTQVTVSS | high polyreactivity
QVQLVESGAGLVQAGGSLRLSCAASGRTFVYNAMGWYRQAPGKERELVAAISSDGASTYYADSVKGRFTISRDNAKNTVYLQMNRLNPEDTAVYYCAADFSYYSYEHYYWGQATQVTVSS | low polyreactivity
QVQLVESGAGLVQAGGSLRLSCAASGRTFWSNAMGWYRQAPGKEREFVAAIRSTVGSTYYADSVKGRFTISRDNAKNTVYLQMNSLNPEDTAVYYCYVSSGYYAYYYWGQGTQVTVSS | high polyreactivity
QVQLVESGAGLVQAGGSLRLSCAASGSILYINTMGWYRQAPGKERELVAAITSSGGSTYYADSVKGRFTISRDNAKNTVDLQMNSLKPEDTAVYYCAAVGYYGGYNYWGQGTQVTVSS | low polyreactivity
QVQLVESGAGLVQAGGSLRLSCAASGSIYVYAMGWSRQAPGKERELVAAISWSDGSTYYADSVKGRFTISRDNAKNTVYLQMNSLKPEDTAVYYCNAYGIQVDTYWQDRVEYDYWGQGTQVTVSS | high polyreactivity
QVQLVESGAGLVQAGGSLRLSCAASGSTFSYNAMGWYRQAPGKERELVAAISRRGDSTYYADSVKGRFTISRDNAKNTVYLQMNSLKTEDTAVYYCYAVTYYSHRYFSWYSRKGYDYWGQGTEVTVSS | high polyreactivity
QVQLVESGAGLVQAGGSLRLSCAASGSTLYRYAMGWYRQAPGKERELVAAISRRGDSTYYADSVKGRFTISRDNAKNTVYLQMNSLKPEDTAVYYCNTARSAGKYDYWGQGTQVTVSS | high polyreactivity

Sequence | polyreactivity (PSR sort gate)
QVQLVESGAGLVQAGGSLRLSCAASGTIFRDYAMGWYRQAPGKERELVAAISSDGSTYYADSVKGRFTISRDNAKNTVYLEMNSLKPEDTAAYYCNARSYYPWEGFDYWGQGTQVTVSS | low polyreactivity
QVQLVESGAGLVQAGGSLRLSCAASGYIFLRYAMGWSRQAPGKERELVAAIRGGSTNYADSVKGRFTISRDNAKNTVYLQMNSLKPEDTAVYYCAARGSKKQAYGYWGQGTQVTVSS | high polyreactivity
QVQLVESGAGLVQAGGSLRLSCAASRRIIYKYAMGWYSQAPGKERELVAAITSGGSTYYADSVKGRYTISRDNAKNTVDLQMNSLKPQDTAVYYCAASYARLSVWYDYWRQGTQVTVSS | high polyreactivity
QVQLVESGAGLVQAGGSLRLSCAATGLTFDYNAMGWYRKAPGKERELVAAITWSGGSTYYADSVKGRFTISRDNAKNTVYLQMNSLKTEDTAVYYCATESYGLDYYDEYNYWGQGTQVTVSS | low polyreactivity
QVQLVESGAGLVQAGGSLRLSCAPSGNIFSVYAMGWYRHAPGKARELVARITKTVGGTYYADSVKGRFTISRDNAKNTVYLQMNSLKPEDTAVYYCAARVWTGNGGSKGAYDYWGQGTQVTVSS | high polyreactivity
QVQLVESGAGLVQAGGSLRLSCAPSGSTFMTYAMGWYRQAPGKERELVAAIRWSGGGTYYADSVKGRFTISRDNAKNTVYLQMNSLKPEDTAVYFCAADHFNYTTGRDYWGQGTQVTVSS | low polyreactivity
QVQLVESGAGLVQAGGSLRLSCASSGSIFVSNAMGWYRKAPGKERELVAAISQSGGSTYYADSVKGRFTISRDNAKNTVYLLMNSLKPEDTAVYYCATPIRSGFRIYDYWGQGTQVTVSS | low polyreactivity
QVQLVESGAGLVQAGGSLRLSCASSGYIFDWYAMGWYRQAHGKERELGAAISGRGGSTYYADSVKGRFTISRDNSKNTVYLQMYSLKPEYTAVYYCNAALSPWGYNYWGQGTQVTVSS | high polyreactivity
QVQLVESGAGLVQAGGSLRLSCDASGSIFSWYAMGWYRQARGKERELVAAITWSGGSTYYADSVKGRFTISRDNAKNTVYLEMNSLKPEDTAVYYCNTYSYYAFDWGLGTQVTVSS | high polyreactivity
QVQLVESGAGLVQAGGSLRLTCAASGIIFPFYAMGWYRQAPGKERELVAGITSGGDTYYADSVKGRFTISRDNAKNTVYLQMNSLKPEDTAVSYCAAVYRRQYGYWGQGTQVTVSS | high polyreactivity
QVQLVESGAGLVQAGGSLRVSCAASGSIFSYYTMGWYRQPPGKERELVAAITYRGGSTYYADSVKGRFTISRDNAKNTVYLQRNSLKPEDTAVYYCAARTRNGAGYYWGQGTQVTVSS | high polyreactivity
QVQLVESGAGLVQARGSLRLSCAPSGRNFTYYAMGWYRQAPGTETELVAAISWSGGRTYYADSVKGRFTISRDNAKNTVYLKMNSLKPEDTAVYYCAADYYAFKFGRFDYWGQGTQVTVSS | high polyreactivity
QVQLVESGAGLVQEGGSLRLSCAASGRIFQTYTMGWYRQAPGKERELVAAISASGGRTYYADSVKGRFTISRDNAKNTVYLQMNSLKPEDTAVYYCAADIRGYDYWGQGTQVTVSS | high polyreactivity
QVQLVESGAVLVQAGGSIRLSCAASGSSFPYYAMGWYRQAPVKERELVATISQDGGRTYADSVKGRFTISRDNAKNTVYLQMNSLKPEDTAVDYCAADYSVNYDFGYWGQGTQVTVSS | low polyreactivity
QVQLVESGEGLVQAGGSLRLSCAASGITFGWYAMGWYRQAPGKERELVASISSSGSTNYADSVKGRFTISRDNAKNTVYLQMNSLKPEDTAVYYCNKDYLLSHYYIYVIEGDYWGQGTQVTVSS | low polyreactivity
QVQLVESGEGLVQAGGSLRLSCAASGRTFYANAMGWYRQAPGKERELVASITTSGGTYYADSVKGRFTISRDNAKNTVYLQMNSLKPEDTAVYYCAADVYRSIGYDYWGQGTQVTVSS | low polyreactivity
QVQLVESGEGLVQAGGSLRLSCAASGSIFTYNAMGWYRQAPGKERELVAAISRGGSTYYADSVKGRFSISRDNAKNTVNLQMNSLIPEDTAVYYCNARRYRHDGYWGQGTQVTVSS | high polyreactivity
QVQLVESGGAIVQAGGSHRLRCAASGSILGRYAMAWYRQAPGKERELVAAISRRGGSTTYADSVKGRFTISRDNAKNTVYFQMNSLKPEDTALYYCNTVSSWGRNYQDEYDYWGQGTQVSVSS | high polyreactivity
QVQLVESGGALDQAGGSLRVSCAASGSIFPIYTMGWYRQAPGKERELVAGIRYRGGNTYYADSVKGRFTISRDNAKNTVYLQMNSLNPEDTAVYYCAARAYYRYLYKLNYWGQGTQVTVSS | high polyreactivity
QVQLVESGGALLQAGGSLRLSCAASGRIFYHYAMGWYRQAPGKESELVAASTWSGVSTYYADSVKGRFTISRDNAKNTVDLQMNRLIPADTAVYYCATSSPYGVRRYSRGSWGQGTQVTVSS | high polyreactivity
QVQLVESGGALVQAGCSLRLSCAASGRTFYRNAMGWYRQAPGKERELVARISRNGGTTYYADSVKGRFTISRDNAKNTVYLQMNSLIPEYTAVYYCAAPIYDGARGDYWGQGTQVTVCS | high polyreactivity
